In experiment [1] the target is T1, Anti-PSMA Fab (SEQ ID NOs: 19, 20).
T1 construct: Biotinylated PSMA Fab captured on neutravidin coated plates in the phage ELISA; also called 006 PSMA Fab
In words: phage binding ELISA; PSMA Fab on plate pre-incubated with PSMA antigen as competitor, anti-M13 HRP detection.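 Further: crude clonal phage supernatants added without washing to wells preincubated with PSMA in blocking buffer, compared with wells receiving blocking buffer only, then bound phage detected.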 Background: ELISA stands for enzyme-linked immunosorbent assay.
Description: (§1) Clonal phage were harvested as crude supernatants and screened via standard ELISAs. […] Prior to the addition of clonal phage. wells were incubated with blocking buffer and PSMA antigen or blocking buffer alone. Without washing or aspirating, clonal phage supernatants were then added to the wells and incubated for a short time. Wells were then washed followed by detection of bound phage using a horse radish conjugated anti-M13 antibody.

Experiment [2] shares this target. In words: phage binding ELISA; biotinylated PSMA Fab on neutravidin plate, clonal phage supernatant, anti-M13 HRP detection.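 Further: wells were preincubated with blocking buffer either containing PSMA antigen or without it before crude phage supernatant was added, briefly incubated, then washed prior to detection.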
Description: as §1
Experiment [3] addresses T2, Anti-PSMA Fab (SEQ ID NOs: 19, 20).
T2 construct: In the phage ELISA the Fab was biotinylated and captured on neutravidin coated plates; also called 006 PSMA Fab
As to the kind of experiment: phage ELISA; biotinylated PSMA Fab on neutravidin plate, clonal phage supernatant, anti-M13 HRP detection.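 Further: wells preincubated with PSMA antigen in blocking buffer or with blocking buffer only before clonal phage were added for a short incubation, then bound phage detected.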
Description: as §1

Experiment [4] has the same target. In words: phage ELISA; PSMA Fab on plate pre-incubated with PSMA antigen as competitor, anti-M13 HRP detection.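 Further: crude clonal phage supernatants added to Fab-coated wells still holding PSMA antigen in blocking buffer, with bound phage as read-out.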
Description: as §1

Where no end group is shown, it is not given here.

B1: Phage-1835 (peptide)
peptide: YEKWCVPDWMCSMI
notes: tested as crude clonal phage supernatant
For the molecule B1, the “Anti-PSMA Fab signal in the presence of PSMA” value in experiment [1] was 0.0678. Also, the “Anti-PSMA Fab (SEQ ID NOs: 19, 20) signal” value in experiment [2] came to 2.28.

B2: Phage-1838 (peptide)
peptide: VMKWCIPVWMCGGM
notes: as for B1
In the case of B2, in experiment [1], the “Anti-PSMA Fab signal in the presence of PSMA” value came out at 0.291. Further, the “Anti-PSMA Fab (SEQ ID NOs: 19, 20) signal” value in experiment [2] is 2.26.

B3: Phage-1843 (peptide)
peptide: LDRWCIPEWMCEMF
notes: as for B1
For the molecule B3, the “Anti-PSMA Fab signal in the presence of PSMA” value in experiment [1] stood at 0.0928. In experiment [2], the “Anti-PSMA Fab (SEQ ID NOs: 19, 20) signal” value worked out at 2.22.

B4: Phage-1847 (peptide)
peptide: SMHWCTPKWMCEGL
modifications: cysteine pairing not given here; also: displayed on phage as pIII fusion, pIII and linker sequences not given here
notes: Clone of the Peptide-180 library
As to B4, the “Phage binding ELISA, Anti-PSMA Fab signal” value in experiment [3] was determined as 2.2. Further, in experiment [4], the “Phage binding ELISA, Anti-PSMA Fab signal in the presence of PSMA” value (“Phage binding ELISA … of PSMA” for short) worked out at 0.147.

B5: Phage-1854 (peptide)
peptide: WEKWCTPQWMCELI
modifications: cysteine pairing not given here; also: displayed on phage as pIII fusion, pIII and linker sequences not given here
notes: as for B4
Turning to B5, the “Phage binding ELISA, Anti-PSMA Fab signal” value in experiment [3] came to 2.17. Besides, the “Phage binding ELISA … of PSMA” value in experiment [4] is 0.182.

B6: Phage-1834 (peptide)
peptide: VERMCMPAWMCDMF
notes: as for B1
For B6, the “Anti-PSMA Fab signal in the presence of PSMA” value in experiment [1] is 0.0862. For the same molecule, the “Anti-PSMA Fab (SEQ ID NOs: 19, 20) signal” value in experiment [2] came to 2.28.

B7: Phage-1845 (peptide)
peptide: FTNWCTPEWMCSGF
notes: as for B1
On to B7, for which the “Anti-PSMA Fab signal in the presence of PSMA” value in experiment [1] amounted to 0.0826. Also, the “Anti-PSMA Fab (SEQ ID NOs: 19, 20) signal” value in experiment [2] is 2.21.

B8: Phage-1860 (peptide)
peptide: GDNWCKPEWMCIGF
modifications: cysteine pairing not given here; also: displayed on phage as pIII fusion, pIII and linker sequences not given here
notes: as for B4
For the molecule B8, the “Phage binding ELISA, Anti-PSMA Fab signal” value in experiment [3] came to 2.16. Also, the “Phage binding ELISA … of PSMA” value in experiment [4] was 0.0978.

B9: Phage-1839 (peptide)
peptide: YDILCRPSWMCSWV
notes: as for B1
For the molecule B9, the “Anti-PSMA Fab signal in the presence of PSMA” value in experiment [1] amounted to 0.145. Besides, in experiment [2], the “Anti-PSMA Fab (SEQ ID NOs: 19, 20) signal” value was found to be 2.24.

B10: Phage-1842 (peptide)
peptide: VERWCVPEWMCHWI
notes: as for B1
With B10, the “Anti-PSMA Fab signal in the presence of PSMA” value in experiment [1] was 0.0977. The “Anti-PSMA Fab (SEQ ID NOs: 19, 20) signal” value in experiment [2] amounted to 2.23.

B11: Phage-1850 (peptide)
peptide: PTKLCIPEWMCYVR
modifications: cysteine pairing not given here; also: displayed on phage as pIII fusion, pIII and linker sequences not given here
notes: as for B4
With B11, the “Phage binding ELISA, Anti-PSMA Fab signal” value in experiment [3] worked out at 2.17. Also, in experiment [4], the “Phage binding ELISA … of PSMA” value turned out to be 0.0692.

B12: Phage-1853 (peptide)
peptide: MEKWCIPEWMCLHT
modifications: cysteine pairing not given here; also: displayed on phage as pIII fusion, pIII and linker sequences not given here
notes: as for B4
Regarding B12, in experiment [3], the “Phage binding ELISA, Anti-PSMA Fab signal” value is 2.17. Also, the “Phage binding ELISA … of PSMA” value in experiment [4] is 0.0816.

B13: Phage-1844 (peptide)
peptide: TDKLCIPEWMCINW
notes: as for B1
On to B13, for which the “Anti-PSMA Fab signal in the presence of PSMA” value in experiment [1] amounted to 0.0602. In addition, the “Anti-PSMA Fab (SEQ ID NOs: 19, 20) signal” value in experiment [2] is 2.22.

B14: Phage-1837 (peptide)
peptide: GLNWCTPTWMCQGF
notes: as for B1
Regarding B14, the “Anti-PSMA Fab signal in the presence of PSMA” value in experiment [1] came to 0.0833. Also, the “Anti-PSMA Fab (SEQ ID NOs: 19, 20) signal” value in experiment [2] was 2.26.

B15: Phage-1833 (peptide)
peptide: DIPWCIPPWMCAGS
modifications: cysteine pairing not given here; also: displayed on phage as pIII fusion, pIII sequence and linker not given here
notes: as for B1
For the molecule B15, the “Anti-PSMA Fab signal in the presence of PSMA” value in experiment [1] amounted to 0.112. For the same molecule, the “Anti-PSMA Fab (SEQ ID NOs: 19, 20) signal” value in experiment [2] came to 2.28.

B16: Phage-1831 (peptide)
peptide: IIPWCKPAWMCSGM
notes: as for B1
Consider B16, for which the “Anti-PSMA Fab signal in the presence of PSMA” value in experiment [1] was found to be 0.275. Besides, the “Anti-PSMA Fab (SEQ ID NOs: 19, 20) signal” value in experiment [2] amounted to 2.29.

B17: Phage-1840 (peptide)
peptide: MVKWCIPSWMCDSV
notes: as for B1
Consider B17, for which the “Anti-PSMA Fab signal in the presence of PSMA” value in experiment [1] stood at 0.109. Besides, in experiment [2], the “Anti-PSMA Fab (SEQ ID NOs: 19, 20) signal” value came to 2.23.

B18: Phage-1859 (peptide)
peptide: VEKWCVPTWMCDWV
modifications: cysteine pairing not given here; also: displayed on phage as pIII fusion, pIII and linker sequences not given here
notes: as for B4
On to B18, for which, in experiment [3], the “Phage binding ELISA, Anti-PSMA Fab signal” value is 2.16. The “Phage binding ELISA … of PSMA” value in experiment [4] was found to be 0.0833.

B19: Phage-1857 (peptide)
peptide: VMKWCIPSWMCSQD
modifications: cysteine pairing not given here; also: displayed on phage as pIII fusion, pIII and linker sequences not given here
notes: as for B4
Consider B19, for which the “Phage binding ELISA, Anti-PSMA Fab signal” value in experiment [3] was 2.16. For the same molecule, the “Phage binding ELISA … of PSMA” value in experiment [4] amounted to 0.165.

B20: Phage-1832 (peptide)
peptide: MGKWCIPEWMCNVS
notes: as for B1
Consider B20, for which the “Anti-PSMA Fab signal in the presence of PSMA” value in experiment [1] is 0.0652. Moreover, in experiment [2], the “Anti-PSMA Fab (SEQ ID NOs: 19, 20) signal” value was determined as 2.29.

B21: Phage-1858 (peptide)
peptide: VDKWCTPIWMCEGF
modifications: cysteine pairing not given here; also: displayed on phage as pIII fusion, pIII and linker sequences not given here
notes: as for B4
For the molecule B21, the “Phage binding ELISA, Anti-PSMA Fab signal” value in experiment [3] amounted to 2.16. Moreover, in experiment [4], the “Phage binding ELISA … of PSMA” value was found to be 0.0951.

B22: Phage-1848 (peptide)
peptide: AIPWCIPAWMCQVF
modifications: cysteine pairing not given here; also: displayed on phage as pIII fusion, pIII and linker sequences not given here
notes: as for B4
Consider B22, for which, in experiment [3], the “Phage binding ELISA, Anti-PSMA Fab signal” value is 2.18. For the same molecule, the “Phage binding ELISA … of PSMA” value in experiment [4] was 0.234.

B23: Phage-1851 (peptide)
peptide: SEMLCKPSWMCLGF
modifications: cysteine pairing not given here; also: displayed on phage as pIII fusion, pIII and linker sequences not given here
notes: as for B4
With B23, the “Phage binding ELISA, Anti-PSMA Fab signal” value in experiment [3] stood at 2.17. In addition, the “Phage binding ELISA … of PSMA” value in experiment [4] came out at 0.0726.

B24: Phage-1846 (peptide)
peptide: PSMRCIPEWMCAML
modifications: cysteine pairing not given here; also: displayed on phage as pIII fusion, pIII and linker sequences not given here
notes: as for B4
For B24, the “Phage binding ELISA, Anti-PSMA Fab signal” value in experiment [3] is 2.2. Besides, the “Phage binding ELISA … of PSMA” value in experiment [4] worked out at 0.0824.

B25: Phage-1856 (peptide)
peptide: MGNWCIPTWMCTGF
modifications: cysteine pairing not given here; also: displayed on phage as pIII fusion, pIII and linker sequences not given here
notes: as for B4
As for B25, the “Phage binding ELISA, Anti-PSMA Fab signal” value in experiment [3] is 2.16. For the same molecule, the “Phage binding ELISA … of PSMA” value in experiment [4] was determined as 0.162.

B26: Phage-1849 (peptide)
peptide: FSHWCIPEWMCSTS
modifications: cysteine pairing not given here; also: displayed on phage as pIII fusion, pIII and linker sequences not given here
notes: as for B4
For the molecule B26, the “Phage binding ELISA, Anti-PSMA Fab signal” value in experiment [3] amounted to 2.18. Also, in experiment [4], the “Phage binding ELISA … of PSMA” value amounted to 0.158.

B27: Phage-1852 (peptide)
peptide: WDHWCTPAWMCEFV
modifications: cysteine pairing not given here; also: displayed on phage as pIII fusion, pIII and linker sequences not given here
notes: as for B4
Take B27: the “Phage binding ELISA, Anti-PSMA Fab signal” value in experiment [3] amounted to 2.17. Moreover, the “Phage binding ELISA … of PSMA” value in experiment [4] was found to be 0.0692.

B28: Phage-1836 (peptide)
peptide: WLPMCRPAWMCAGL
modifications: cysteine pairing not given here; also: displayed on phage as pIII fusion, pIII sequence and linker not given here
notes: as for B1
As for B28, in experiment [1], the “Anti-PSMA Fab signal in the presence of PSMA” value came out at 0.0653. For the same molecule, the “Anti-PSMA Fab (SEQ ID NOs: 19, 20) signal” value in experiment [2] is 2.27.

B29: Phage-1855 (peptide)
peptide: MEKWCTPSWMCVGF
modifications: cysteine pairing not given here; also: displayed on phage as pIII fusion, pIII and linker sequences not given here
notes: as for B4
B29: the “Phage binding ELISA, Anti-PSMA Fab signal” value in experiment [3] worked out at 2.17. The “Phage binding ELISA … of PSMA” value in experiment [4] was found to be 0.148.

B30: Phage-1841 (peptide)
peptide: TDKWCIPPWMCMLQ
notes: as for B1
Consider B30, for which the “Anti-PSMA Fab signal in the presence of PSMA” value in experiment [1] was 0.0865. Also, in experiment [2], the “Anti-PSMA Fab (SEQ ID NOs: 19, 20) signal” value was 2.23.
